Some targets named below: His77 (UniProt position 98, YNAADHAAPED); His105 (UniProt position 126, GTPEVHAVKPG); Glu66 (UniProt position 87, VPKLDEVYNAA); Glu13 (UniProt position 34, EQKLIEDVNAS); Glu85 (UniProt position 106, PEDKYEAFVLH); Asp33 (UniProt position 54, NVPPADKYKTF); Glu103 (UniProt position 124, IAGTPEVHAVK); His90 (UniProt position 111, EAFVLHFSEAL); Glu8 (UniProt position 29, KATTEEQKLIE); Glu93 (UniProt position 114, VLHFSEALRII); Glu7 (UniProt position 28, GKATTEEQKLI); Asp14 (UniProt position 35, QKLIEDVNASF); Asp76 (UniProt position 97, AYNAADHAAPE); Asp52 (UniProt position 73, KRNLADAVSKA); Asp82 (UniProt position 103, HAAPEDKYEAF); Asp65 (UniProt position 86, LVPKLDEVYNA); Glu81 (UniProt position 102, DHAAPEDKYEA); Glu39 (UniProt position 60, KYKTFEAAFTV).

Common to all, as to experiment: NMR
Common to all, as to conditions: 25 °C, not stated (10 mM citrate-phosphate buffer; no added salt mentioned), folded, free protein, 1 mM

These results are taken from PMC6994067.

As usually defined, the pKa is the pH at which an ionisable group is half protonated.

As to “Pollen allergen Phl p 6 (Phleum pratense (timothy grass))”, the pKa came to 7.4 in the data set with His77; 6.5 with His105; 4.06 with Glu66; 3.80 with Glu13; 4.59 with Glu85; 3.38 with Asp33. Also, the pKa with Glu103 came out at 3.65; with His90 it was 7.3; with Glu8, 3.19; in the data set with Glu93 it was 4.21; in the data set with Glu7, 4.25; in the data set with Asp14 it was 3.50. The pKa is 3.50 in the data set with Asp76; 2.4 with Asp52; 3.06 with Asp82; 4.80 with Asp65; 3.52 in the data set with Glu81; 4.84 in the data set with Glu39.
